Columns and labels:
[1] = biological target: T1, human CD96v2 expressed on cells (CHO cells; transiently transfected HEK cells) (human, UniProt P40200-2 22-569); test: flow cytometry on CHO cells expressing human CD96v2
T1 construct: whole, on cells; the cell is named under assay; also called CHO-huCD96; hCD96v2
T1 sequence (looked up): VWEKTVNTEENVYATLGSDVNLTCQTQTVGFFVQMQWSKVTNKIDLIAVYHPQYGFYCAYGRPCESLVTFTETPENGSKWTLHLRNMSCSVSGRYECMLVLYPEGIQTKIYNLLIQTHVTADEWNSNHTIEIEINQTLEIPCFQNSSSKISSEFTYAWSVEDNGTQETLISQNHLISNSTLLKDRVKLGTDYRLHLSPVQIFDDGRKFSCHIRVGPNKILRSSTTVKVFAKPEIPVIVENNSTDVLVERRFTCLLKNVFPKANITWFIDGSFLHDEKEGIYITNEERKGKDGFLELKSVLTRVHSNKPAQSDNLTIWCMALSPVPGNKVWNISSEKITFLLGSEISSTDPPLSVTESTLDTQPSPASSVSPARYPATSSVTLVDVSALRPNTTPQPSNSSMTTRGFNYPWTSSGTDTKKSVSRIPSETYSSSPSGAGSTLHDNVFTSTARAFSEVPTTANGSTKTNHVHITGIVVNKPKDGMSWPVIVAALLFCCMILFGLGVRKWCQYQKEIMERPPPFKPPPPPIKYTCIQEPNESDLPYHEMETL

[2] = biological target: T2, human CD96v1 on transiently transfected HEK cells (human, UniProt P40200 22-585); test: flow cytometry on transiently transfected HEK cells (Human CD96v1)
T2 construct: whole, on cells
T2 sequence (looked up): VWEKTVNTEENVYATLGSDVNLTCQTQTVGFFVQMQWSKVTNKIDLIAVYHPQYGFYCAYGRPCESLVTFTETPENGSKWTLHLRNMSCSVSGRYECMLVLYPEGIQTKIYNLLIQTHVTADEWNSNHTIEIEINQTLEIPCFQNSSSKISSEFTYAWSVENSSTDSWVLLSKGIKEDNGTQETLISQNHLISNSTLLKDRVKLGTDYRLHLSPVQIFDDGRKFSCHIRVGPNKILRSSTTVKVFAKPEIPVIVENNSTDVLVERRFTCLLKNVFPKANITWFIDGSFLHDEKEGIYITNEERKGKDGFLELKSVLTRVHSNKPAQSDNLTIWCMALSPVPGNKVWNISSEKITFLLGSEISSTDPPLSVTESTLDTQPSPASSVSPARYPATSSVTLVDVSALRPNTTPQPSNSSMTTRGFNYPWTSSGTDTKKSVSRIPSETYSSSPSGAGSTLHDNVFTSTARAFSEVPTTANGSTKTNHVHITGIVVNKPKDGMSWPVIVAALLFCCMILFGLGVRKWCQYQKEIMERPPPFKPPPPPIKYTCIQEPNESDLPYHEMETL

[3] = biological target: T1, human CD96v2 expressed on cells (CHO …); test: flow cytometry on transiently transfected HEK cells; geometric mean, n = 3
[4] = biological target: T3, cynomolgus monkey CD96v2 expressed on cells (CHO cells; transiently transfected HEK cells) (cynomolgus monkey, UniProt A0A2K5TWV6 22-569); test: as above
T3 construct: the cell is named under assay; also called CHO-cyCD96; Cyno CD96v2
T3 sequence: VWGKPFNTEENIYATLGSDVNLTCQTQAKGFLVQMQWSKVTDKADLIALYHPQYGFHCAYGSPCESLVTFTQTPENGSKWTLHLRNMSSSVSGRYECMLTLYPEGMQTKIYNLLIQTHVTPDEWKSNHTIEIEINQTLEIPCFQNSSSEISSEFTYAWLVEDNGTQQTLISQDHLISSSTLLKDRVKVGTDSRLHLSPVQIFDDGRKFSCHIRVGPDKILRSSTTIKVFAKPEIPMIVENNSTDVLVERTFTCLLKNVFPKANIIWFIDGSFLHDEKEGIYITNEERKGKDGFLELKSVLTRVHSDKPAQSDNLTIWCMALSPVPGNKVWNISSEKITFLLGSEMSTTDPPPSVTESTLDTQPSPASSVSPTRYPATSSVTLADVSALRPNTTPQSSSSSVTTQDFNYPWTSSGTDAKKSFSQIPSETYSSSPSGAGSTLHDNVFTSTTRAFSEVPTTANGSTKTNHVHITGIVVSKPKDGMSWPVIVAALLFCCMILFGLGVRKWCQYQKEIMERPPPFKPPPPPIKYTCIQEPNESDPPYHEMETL

[5] = biological target: T2, human CD96v1 on transiently transfected …; test: as above
[6] = biological target: T4, cynomolgus monkey CD96v1 on transiently transfected HEK cells (cynomolgus monkey); test: as above
T4 construct: whole, on cells; also called Cyno CD96v1

[7] = biological target: T5, blood derived cynomolgus monkey CD96v2 on transiently transfected HEK cells (cynomolgus monkey); test: as above
T5 construct: also called Blood derived Cyno CD96v2

[8] = biological target: T3, cynomolgus monkey CD96v2 expressed on …; test: flow cytometry on transiently transfected HEK cells; upper end of range, n = 3
[9] = biological target: T2, human CD96v1 on transiently transfected …; test: as above
[10] = biological target: T4, cynomolgus monkey CD96v1 on transiently …; test: as above
[11] = biological target: T5, blood derived cynomolgus monkey CD96v2 …; test: as above
[12] = biological target: T5, blood derived cynomolgus monkey CD96v2 …; test: flow cytometry on transiently transfected HEK cells (Cyno blood derived CD96v2)
[13] = biological target: T6, cynomolgus monkey CD96, native, on primary cynomolgus monkey T cells (cynomolgus monkey, UniProt A0A2K5TWV6 22-569); test: flow cytometry on activated cynomolgus monkey CD3+ T cells; mean of 3 samples; cynomolgus monkey CD3+ T cells activated with anti-CD2/3/28 beads for 17 days; mean of 3 samples
T6 construct: whole, on cells
T6 sequence: T3 sequence

B1: 42Y073-86F08-66 (antibody)
heavy: not shown
light: DIQLTQSPSSLSASVGDRVTITCRASQSISSYLNWYQQKPGKAPKLLIYAASSLQSGVPSRFSGSGSGTDFTLTISSLQPEDFATYYCQQVLHTITFGGGTKVEIKRTVAAPSVFIFPPSDEQLKSGTASVVCLLNNFYPREAKVQWKVDNALQSGNSQESVTEQDSKDSTYSLSSTLTLSKADYEKHKVYACEVTHQGLSSPVTKSFNRGEC
notes: also called GSK 6097608; GSK6097608
EC50 [1]: 0.05 nM | EC50 (read off the curve) [2]: ~6 nM | EC50 [3]: 6.44 nM | EC50 [4]: 7.88 nM | EC50 [5]: 5.28 nM | EC50 [6]: 9.17 nM | EC50 [7]: 7.34 nM | EC50 [8]: 11.2 nM | EC50 [9]: 8.89 nM | EC50 [10]: 12.3 nM | EC50 [11]: 10.2 nM | EC50 (read off the curve) [12]: ~9 nM | EC50 [13]: 0.0766 nM
